Measured values published in paper PMC5398727, “GP73 represses host innate immune response to promote virus replication by facilitating MAVS and TRAF6 degradation” (PLoS Pathogens, 2017).

Target: T1, GST-GP73 (aa36-401) (human, UniProt Q8NBJ4 36-401)
T1 construct: also called recombinant GST-GP73; GST-fused GP73; source: E. coli BL21, purified (glutathione Sepharose 4B)
T1 sequence (looked up): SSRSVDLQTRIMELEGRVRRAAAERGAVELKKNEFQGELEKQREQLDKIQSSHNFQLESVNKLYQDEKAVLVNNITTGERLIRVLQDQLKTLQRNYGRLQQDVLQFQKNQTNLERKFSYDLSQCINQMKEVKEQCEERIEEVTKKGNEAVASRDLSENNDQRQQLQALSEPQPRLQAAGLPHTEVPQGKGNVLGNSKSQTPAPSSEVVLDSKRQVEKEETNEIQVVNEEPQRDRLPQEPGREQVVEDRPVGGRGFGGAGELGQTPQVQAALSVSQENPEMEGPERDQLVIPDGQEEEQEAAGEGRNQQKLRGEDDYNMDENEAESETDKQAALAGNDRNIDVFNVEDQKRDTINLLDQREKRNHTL
Test: pull-down; purified MBP, MBP-M11 or MBP-T6CC (20 μg) with 10 μg GST or 20 μg GST-GP73 overnight at 4°C; WB (S4A Fig)
Details: both partners purified

B1: MBP-M11 (domain or fragment, UniProt Q7Z434 1-90, looked up)
chain: MPFAEDKTYKYICRNFSNFCNVDVVEILPYLPCLTARDQDRLRATCTLSGNRDTLWHLFNTLQRRPGWVEYFIAALRGCELVDLADEVASISASTSLGMGPCHGPEENEYKSEGTFGIHVAENPSIQLLEGNPGPPADPDGGPRPQADRKFQEREVPCHRPSPGALWLQVAVTGVLVVTLLVVLYRRRLH
notes: also called MBP-fused M11; source: E. coli BL21, purified (amylose resin)
- binding result: binds
